Assay results: the supplement of paper PMC9112550, “Optimization of the antimicrobial peptide Bac7 by deep mutational scanning” (BMC Biology, 2022)

Each sequence was assayed on Escherichia coli TOP10 (assay: shrunken log2 fold change of peptide-encoding DNA abundance (4.5 h post-induction vs induction); higher = less antimicrobial activity (less host growth inhibition)). Conditions: time post-induction: 4.5 h; library: site-saturation at positions 5, 18, 19, 20.
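Further: peptides expressed intracellularly from a pBAD plasmid library in pooled LB shake-flask culture, induced with 0.3% L-arabinose, DNA abundance read by NGS, three biological replicates, DESeq2 with apeglm shrinkage.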

RRIRNRPPRLPRPRPRPWDFPRP and RRIRCRPPRLPRPRPRPMLMPRP are within 0.2 log units of each other in “shrunken log2 fold change” value: -0.00226 for the first, 0.0436 for the second.

RRIRKRPPRLPRPRPRPRNKPRP and RRIRERPPRLPRPRPRPWGPPRP are within 0.2 log units of each other in “shrunken log2 fold change” value: -0.08 for the first, -0.0024 for the second.

RRIRTRPPRLPRPRPRPVEDPRP and RRIRERPPRLPRPRPRPFSTPRP are within 0.2 log units of each other in “shrunken log2 fold change” value: 0.0389 for the first, -0.0931 for the second.

RRIRVRPPRLPRPRPRPTIIPRP and RRIRDRPPRLPRPRPRPCNQPRP are within 0.2 log units of each other in “shrunken log2 fold change” value: -0.479 for the first, -0.285 for the second.

First: RRIRGRPPRLPRPRPRPLSMPRP
Second: RRIRPRPPRLPRPRPRPFIKPRP
The “shrunken log2 fold change” value of the first is higher: 1.34 for the first, -0.926 for the second.

Compared with RRIRYRPPRLPRPRPRPCLVPRP, RRIRKRPPRLPRPRPRPTPPPRP is higher in “shrunken log2 fold change” value: -0.0874 for the first, 1.25 for the second.

RRIRSRPPRLPRPRPRPTELPRP and RRIRNRPPRLPRPRPRPQIIPRP are within 0.2 log units of each other in “shrunken log2 fold change” value: -0.0967 for the first, -0.106 for the second.

RRIRARPPRLPRPRPRPGYRPRP and RRIRVRPPRLPRPRPRPRQTPRP are within 0.2 log units of each other in “shrunken log2 fold change” value: -0.107 for the first, -0.0375 for the second.

RRIRLRPPRLPRPRPRPAYRPRP and RRIRRRPPRLPRPRPRPVEEPRP are within 0.2 log units of each other in “shrunken log2 fold change” value: -0.0396 for the first, 0.105 for the second.

Going from RRIRRRPPRLPRPRPRPAWEPRP to RRIRDRPPRLPRPRPRPRIVPRP, the “shrunken log2 fold change” value falls from 0.301 to -0.385.

Going from RRIRERPPRLPRPRPRPQCPPRP to RRIRGRPPRLPRPRPRPCIAPRP, the “shrunken log2 fold change” value rises from -0.207 to 0.797.

Compared with RRIRQRPPRLPRPRPRPPFDPRP, RRIRMRPPRLPRPRPRPWKFPRP is lower in “shrunken log2 fold change” value: 0.283 for the first, 0.0673 for the second.

RRIRYRPPRLPRPRPRPKELPRP and RRIRVRPPRLPRPRPRPMHKPRP are within 0.2 log units of each other in “shrunken log2 fold change” value: -0.0199 for the first, -0.192 for the second.

RRIRRRPPRLPRPRPRPHIMPRP and RRIRERPPRLPRPRPRPCGMPRP are within 0.2 log units of each other in “shrunken log2 fold change” value: -0.435 for the first, -0.398 for the second.

RRIRWRPPRLPRPRPRPVLTPRP and RRIRSRPPRLPRPRPRPRGMPRP are within 0.2 log units of each other in “shrunken log2 fold change” value: 0.147 for the first, 0.164 for the second.

RRIRMRPPRLPRPRPRPFTYPRP and RRIRLRPPRLPRPRPRPCQSPRP are within 0.2 log units of each other in “shrunken log2 fold change” value: -0.0802 for the first, -0.0018 for the second.

Going from RRIRGRPPRLPRPRPRPPWCPRP to RRIRERPPRLPRPRPRPPCHPRP, the “shrunken log2 fold change” value falls from 0.491 to -0.251.

Going from RRIRARPPRLPRPRPRPGFIPRP to RRIRSRPPRLPRPRPRPVISPRP, the “shrunken log2 fold change” value rises from -0.339 to 0.141.

RRIRYRPPRLPRPRPRPLISPRP and RRIRVRPPRLPRPRPRPSHLPRP are within 0.2 log units of each other in “shrunken log2 fold change” value: -0.596 for the first, -0.443 for the second.

Going from RRIRERPPRLPRPRPRPEHTPRP to RRIRFRPPRLPRPRPRPHMAPRP, the “shrunken log2 fold change” value falls from -0.154 to -0.429.

First: RRIRMRPPRLPRPRPRPADDPRP
Second: RRIRPRPPRLPRPRPRPTYRPRP
The “shrunken log2 fold change” value of the first is higher: -0.00235 for the first, -0.236 for the second.

RRIRDRPPRLPRPRPRPFTRPRP and RRIRWRPPRLPRPRPRPSQWPRP are within 0.2 log units of each other in “shrunken log2 fold change” value: -0.242 for the first, -0.0949 for the second.

RRIRKRPPRLPRPRPRPAFLPRP and RRIRSRPPRLPRPRPRPWQIPRP are within 0.2 log units of each other in “shrunken log2 fold change” value: 0.245 for the first, 0.0843 for the second.

Going from RRIRFRPPRLPRPRPRPECQPRP to RRIRIRPPRLPRPRPRPYSEPRP, the “shrunken log2 fold change” value falls from -0.0729 to -0.535.

Compared with RRIRSRPPRLPRPRPRPNEEPRP, RRIRLRPPRLPRPRPRPSLGPRP is lower in “shrunken log2 fold change” value: 0.0709 for the first, -0.213 for the second.

Compared with RRIRGRPPRLPRPRPRPLYWPRP, RRIRRRPPRLPRPRPRPMADPRP is higher in “shrunken log2 fold change” value: -0.169 for the first, 0.357 for the second.

First: RRIRPRPPRLPRPRPRPWFDPRP
Second: RRIRHRPPRLPRPRPRPMQWPRP
The “shrunken log2 fold change” value of the first is lower: -0.278 for the first, 0.00884 for the second.

RRIRDRPPRLPRPRPRPKHGPRP and RRIRSRPPRLPRPRPRPTCYPRP are within 0.2 log units of each other in “shrunken log2 fold change” value: 0.0517 for the first, -0.0144 for the second.

RRIRYRPPRLPRPRPRPAPAPRP and RRIRQRPPRLPRPRPRPWIAPRP are within 0.2 log units of each other in “shrunken log2 fold change” value: 0.0272 for the first, -0.161 for the second.

Compared with RRIRGRPPRLPRPRPRPIWEPRP, RRIRARPPRLPRPRPRPACTPRP is higher in “shrunken log2 fold change” value: 0.019 for the first, 0.668 for the second.

First: RRIRVRPPRLPRPRPRPEEYPRP
Second: RRIRDRPPRLPRPRPRPPMRPRP
The “shrunken log2 fold change” value of the first is lower: -0.411 for the first, 0.759 for the second.

Compared with RRIRHRPPRLPRPRPRPCPIPRP, RRIRARPPRLPRPRPRPEVQPRP is higher in “shrunken log2 fold change” value: -0.0539 for the first, 0.76 for the second.

Compared with RRIRMRPPRLPRPRPRPTFQPRP, RRIRQRPPRLPRPRPRPFERPRP is lower in “shrunken log2 fold change” value: 0.428 for the first, 0.0412 for the second.

RRIRWRPPRLPRPRPRPLERPRP and RRIRYRPPRLPRPRPRPCFQPRP are within 0.2 log units of each other in “shrunken log2 fold change” value: -0.148 for the first, -0.267 for the second.

First: RRIRFRPPRLPRPRPRPAKRPRP
Second: RRIRPRPPRLPRPRPRPYTEPRP
The “shrunken log2 fold change” value of the first is higher: 0.21 for the first, -0.349 for the second.

First: RRIRARPPRLPRPRPRPTWRPRP
Second: RRIRIRPPRLPRPRPRPYATPRP
The “shrunken log2 fold change” value of the first is higher: 0.813 for the first, -0.334 for the second.

RRIRNRPPRLPRPRPRPKYLPRP and RRIRKRPPRLPRPRPRPFEYPRP are within 0.2 log units of each other in “shrunken log2 fold change” value: -0.0259 for the first, -0.00133 for the second.

RRIRQRPPRLPRPRPRPKEAPRP and RRIRCRPPRLPRPRPRPHNWPRP are within 0.2 log units of each other in “shrunken log2 fold change” value: 0.107 for the first, -0.00871 for the second.

Compared with RRIRARPPRLPRPRPRPAKRPRP, RRIRFRPPRLPRPRPRPSWDPRP is lower in “shrunken log2 fold change” value: 0.47 for the first, -0.152 for the second.

Compared with RRIRCRPPRLPRPRPRPSPEPRP, RRIRCRPPRLPRPRPRPAEHPRP is lower in “shrunken log2 fold change” value: 0.3 for the first, 0.0782 for the second.

Compared with RRIRYRPPRLPRPRPRPGQAPRP, RRIRSRPPRLPRPRPRPTKAPRP is higher in “shrunken log2 fold change” value: 0.0475 for the first, 0.266 for the second.

Going from RRIRCRPPRLPRPRPRPMIMPRP to RRIRNRPPRLPRPRPRPKTMPRP, the “shrunken log2 fold change” value rises from -0.854 to 0.177.

First: RRIRYRPPRLPRPRPRPFKFPRP
Second: RRIRYRPPRLPRPRPRPYMYPRP
The “shrunken log2 fold change” value of the first is higher: 0.0599 for the first, -0.23 for the second.

Going from RRIRTRPPRLPRPRPRPLWLPRP to RRIRHRPPRLPRPRPRPYIQPRP, the “shrunken log2 fold change” value falls from 0.165 to -0.73.

Going from RRIRIRPPRLPRPRPRPYMQPRP to RRIRRRPPRLPRPRPRPLKTPRP, the “shrunken log2 fold change” value rises from -0.695 to 0.157.

Going from RRIRGRPPRLPRPRPRPVNDPRP to RRIRHRPPRLPRPRPRPSVSPRP, the “shrunken log2 fold change” value falls from 0.368 to -0.0167.

RRIRVRPPRLPRPRPRPCPWPRP and RRIRWRPPRLPRPRPRPAKPPRP are within 0.2 log units of each other in “shrunken log2 fold change” value: 0.0617 for the first, 0.0169 for the second.

Going from RRIRQRPPRLPRPRPRPPVVPRP to RRIRTRPPRLPRPRPRPYVKPRP, the “shrunken log2 fold change” value falls from 0.126 to -0.221.

Compared with RRIRVRPPRLPRPRPRPVPLPRP, RRIRSRPPRLPRPRPRPYPPPRP is lower in “shrunken log2 fold change” value: -0.121 for the first, -0.377 for the second.

RRIRKRPPRLPRPRPRPCTRPRP and RRIRMRPPRLPRPRPRPSEWPRP are within 0.2 log units of each other in “shrunken log2 fold change” value: -0.103 for the first, 0.0913 for the second.

RRIRSRPPRLPRPRPRPTDCPRP and RRIRCRPPRLPRPRPRPRNCPRP are within 0.2 log units of each other in “shrunken log2 fold change” value: -0.0926 for the first, -0.288 for the second.

Compared with RRIRTRPPRLPRPRPRPCQVPRP, RRIRNRPPRLPRPRPRPSAEPRP is higher in “shrunken log2 fold change” value: -0.304 for the first, 0.113 for the second.

Compared with RRIRPRPPRLPRPRPRPQGAPRP, RRIRMRPPRLPRPRPRPLKAPRP is higher in “shrunken log2 fold change” value: 0.0965 for the first, 0.541 for the second.

RRIRYRPPRLPRPRPRPQSKPRP and RRIRCRPPRLPRPRPRPSMWPRP are within 0.2 log units of each other in “shrunken log2 fold change” value: -0.607 for the first, -0.648 for the second.

First: RRIRARPPRLPRPRPRPEYAPRP
Second: RRIRGRPPRLPRPRPRPWRDPRP
The “shrunken log2 fold change” value of the first is higher: 0.672 for the first, 0.0475 for the second.

RRIRVRPPRLPRPRPRPIKDPRP and RRIRNRPPRLPRPRPRPYKMPRP are within 0.2 log units of each other in “shrunken log2 fold change” value: 0.0334 for the first, -0.0115 for the second.

Going from RRIRNRPPRLPRPRPRPDRAPRP to RRIRVRPPRLPRPRPRPQNNPRP, the “shrunken log2 fold change” value falls from 0.171 to -0.66.

RRIRGRPPRLPRPRPRPFINPRP and RRIRHRPPRLPRPRPRPPIIPRP are within 0.2 log units of each other in “shrunken log2 fold change” value: -0.165 for the first, -0.183 for the second.

Compared with RRIRWRPPRLPRPRPRPYNHPRP, RRIRERPPRLPRPRPRPLRWPRP is higher in “shrunken log2 fold change” value: -1.43 for the first, 0.459 for the second.

RRIRDRPPRLPRPRPRPDDIPRP and RRIRNRPPRLPRPRPRPQKCPRP are within 0.2 log units of each other in “shrunken log2 fold change” value: -0.00277 for the first, 0.0748 for the second.

Compared with RRIRGRPPRLPRPRPRPFVHPRP, RRIRVRPPRLPRPRPRPWCLPRP is lower in “shrunken log2 fold change” value: 0.111 for the first, -0.198 for the second.

First: RRIRNRPPRLPRPRPRPIRAPRP
Second: RRIRLRPPRLPRPRPRPDWLPRP
The “shrunken log2 fold change” value of the first is lower: -0.0265 for the first, 0.318 for the second.

In the case of RRIRHRPPRLPRPRPRPCEHPRP, the “shrunken log2 fold change” value is reported as -0.00546.
